The results in this text go back to publication PMC7804290.

Residue numbers refer to the chain shown, from its start.

For series [1], the target named is T1, nsp12 (RdRp catalytic subunit);nsp8;nsp7 (SARS-CoV-2;SARS-CoV-2;SARS-CoV-2, UniProt P0DTD1;P0DTD1;P0DTD1 4393-5324;3943-4140;3860-3942, ||). Briefly: cryo-EM (complex isolated by SEC). As to conditions: protein: recombinant;recombinant;recombinant; copies: 1;2;1.
Series [2] has as its target T1, nsp12 (RdRp catalytic subunit);nsp8;nsp7. The series is described as follows: cryo-EM (complex isolated by SEC); 1 mM Mg2+; AMP control for structure 2. As to conditions: protein: recombinant;recombinant;recombinant; copies: 1;2;1.

B1: scaffold 1 (RMP at -3) (structured_RNA)
RNA 1: UUUUCAUGCAUCGCGUAGGCUCAUACCGUAUUGAGACCUUUUGGUCUCAAUACGGUA
RNA 2: UGAGCCUACGCGAUG
modifications: remdesivir monophosphate (RMP, 1'-cyano-4-aza-7,9-dideazaadenosine) at position 13 of strand 2, written as A
As to B1, in series [1], the binding result was “binds”.

B2: scaffold 2 (RMP at -4) (structured_RNA)
RNA 1: B1 RNA 1 with U11C, C12U
RNA 2: UGAGCCUACGCAGUG
modifications: remdesivir monophosphate (RMP, 1'-cyano-4-aza-7,9-dideazaadenosine) at position 12 of strand 2, written as A (oligo R-4)
With B2, the binding result in series [1] was “binds”.

B3: scaffold 3 (AMP at -4) (structured_RNA)
RNA 1: B1 RNA 1 with U11C, C12U
RNA 2: UGAGCCUACGCAGUG
As for B3, the binding result in series [2] was “binds”.
